Patent US9327008B2, “Cell-permeant peptide-based inhibitor of kinases” (Purdue Research Foundation, priority 2008, dated 2016)

What was measured:
Type in all cases: biochemical
BTK = biological target: T1, BTK (Homo sapiens, UniProt Q06187); test: Millipore radiometric kinase activity assay, BTK (h)
T1 construct: purchased Millipore (assay service)
Excerpt: A commercial radiometric assay service (Millipore, Billerica, Mass.) was used to test the specificity and potency of peptides containing a coupled transduction domain and therapeutic domain, hereinafter “complete peptides”). In these assays, if the kinase is not inhibited by an inhibitor peptide, a positively charged substrate is phosphorylated with a radiolabeled phosphate group from an ATP. […] The reaction is initiated by the addition of the MgATP mix. […] IC50 values for inhibitor peptides were determined using Millipore's IC50Profiler Express service. The IC50 value was estimated from a 10-point curve of one-half log dilutions. […] In both assays, compounds were supplied in dimethylsulfoxide (DMSO). Every kinase activity measurement was conducted in duplicate. Therapeutic inhibitor peptides were assayed for activity against human kinases related to MK2, cell viability, or human disease. […] Error is reported as the standard deviation between 2 samples, and “c” is rat AMPK whereas all other kinases used are human kinases.

PhKγ2 = biological target: T2, PhKγ2 (Homo sapiens, UniProt P15735); test: Millipore radiometric kinase activity assay, PhKγ2 (h)
T2 construct: purchased Millipore (radiometric assay service)
T2 sequence (P15735 1-406): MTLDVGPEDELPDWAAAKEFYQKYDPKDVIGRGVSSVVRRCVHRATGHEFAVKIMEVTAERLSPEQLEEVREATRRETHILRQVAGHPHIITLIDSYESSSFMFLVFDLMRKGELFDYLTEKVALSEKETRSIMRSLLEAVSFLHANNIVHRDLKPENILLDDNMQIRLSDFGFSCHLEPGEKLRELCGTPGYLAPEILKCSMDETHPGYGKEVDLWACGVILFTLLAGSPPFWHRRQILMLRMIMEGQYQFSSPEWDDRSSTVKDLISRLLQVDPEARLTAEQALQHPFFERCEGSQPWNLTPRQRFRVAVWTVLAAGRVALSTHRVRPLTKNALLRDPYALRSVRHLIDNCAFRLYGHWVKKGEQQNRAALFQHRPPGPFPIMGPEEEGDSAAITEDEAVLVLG
Procedure: (§1) A commercial radiometric assay service (Millipore, Billerica, Mass.) was used to test the specificity and potency of peptides containing a coupled transduction domain and therapeutic domain, hereinafter “complete peptides”). In these assays, if the kinase is not inhibited by an inhibitor peptide, a positively charged substrate is phosphorylated with a radiolabeled phosphate group from an ATP.
(§2) In a final reaction volume of 25 μL, PhKγ2 (h) (5-10 mU) is incubated with 8 mM MOPS pH 7.0, 0.2 mM EDTA, 250 μM […] [SEQ ID NO: 52], 10 mM MgAcetate and [γ-^33P-ATP] (specific activity approx. 500 cpm/pmol, concentration as required). The reaction is initiated by the addition of the MgATP mix. After incubation for 40 minutes at room temperature, the reaction is stopped by the addition of 5 μL of a 3% phosphoric acid solution. 10 μL of the reaction is then spotted onto a P30 filtermat and washed three times for 5 minutes in 75 mM phosphoric acid and once in methanol prior to drying and scintillation counting.
(§3) IC50 values for inhibitor peptides were determined using Millipore's IC50Profiler Express service. The IC50 value was estimated from a 10-point curve of one-half log dilutions. For peptides tested for specificity, the concentration of the peptides that inhibited approximately 95% of MK2 activity was chosen to profile against a battery of kinases related to MK2, cell viability, or human disease from MilliporeKinaseProfiler service. In both assays, compounds were supplied in dimethylsulfoxide (DMSO). Every kinase activity measurement was conducted in duplicate.
(§4) Therapeutic inhibitor peptides were assayed for activity against human kinases related to MK2, cell viability, or human disease. The assays were performed using concentrations of therapeutic inhibitor peptides that yielded 2% to 8% of normal MK2 activity. Error is reported as the standard deviation between 2 samples, and “c” is rat AMPK whereas all other kinases used are human kinases.

Met = biological target: T3, Met (Homo sapiens, UniProt P08581); test: Millipore radiometric kinase activity assay, Met (h)
T3 construct: purchased Millipore (radiometric assay service)
T3 sequence (P08581 25-1390): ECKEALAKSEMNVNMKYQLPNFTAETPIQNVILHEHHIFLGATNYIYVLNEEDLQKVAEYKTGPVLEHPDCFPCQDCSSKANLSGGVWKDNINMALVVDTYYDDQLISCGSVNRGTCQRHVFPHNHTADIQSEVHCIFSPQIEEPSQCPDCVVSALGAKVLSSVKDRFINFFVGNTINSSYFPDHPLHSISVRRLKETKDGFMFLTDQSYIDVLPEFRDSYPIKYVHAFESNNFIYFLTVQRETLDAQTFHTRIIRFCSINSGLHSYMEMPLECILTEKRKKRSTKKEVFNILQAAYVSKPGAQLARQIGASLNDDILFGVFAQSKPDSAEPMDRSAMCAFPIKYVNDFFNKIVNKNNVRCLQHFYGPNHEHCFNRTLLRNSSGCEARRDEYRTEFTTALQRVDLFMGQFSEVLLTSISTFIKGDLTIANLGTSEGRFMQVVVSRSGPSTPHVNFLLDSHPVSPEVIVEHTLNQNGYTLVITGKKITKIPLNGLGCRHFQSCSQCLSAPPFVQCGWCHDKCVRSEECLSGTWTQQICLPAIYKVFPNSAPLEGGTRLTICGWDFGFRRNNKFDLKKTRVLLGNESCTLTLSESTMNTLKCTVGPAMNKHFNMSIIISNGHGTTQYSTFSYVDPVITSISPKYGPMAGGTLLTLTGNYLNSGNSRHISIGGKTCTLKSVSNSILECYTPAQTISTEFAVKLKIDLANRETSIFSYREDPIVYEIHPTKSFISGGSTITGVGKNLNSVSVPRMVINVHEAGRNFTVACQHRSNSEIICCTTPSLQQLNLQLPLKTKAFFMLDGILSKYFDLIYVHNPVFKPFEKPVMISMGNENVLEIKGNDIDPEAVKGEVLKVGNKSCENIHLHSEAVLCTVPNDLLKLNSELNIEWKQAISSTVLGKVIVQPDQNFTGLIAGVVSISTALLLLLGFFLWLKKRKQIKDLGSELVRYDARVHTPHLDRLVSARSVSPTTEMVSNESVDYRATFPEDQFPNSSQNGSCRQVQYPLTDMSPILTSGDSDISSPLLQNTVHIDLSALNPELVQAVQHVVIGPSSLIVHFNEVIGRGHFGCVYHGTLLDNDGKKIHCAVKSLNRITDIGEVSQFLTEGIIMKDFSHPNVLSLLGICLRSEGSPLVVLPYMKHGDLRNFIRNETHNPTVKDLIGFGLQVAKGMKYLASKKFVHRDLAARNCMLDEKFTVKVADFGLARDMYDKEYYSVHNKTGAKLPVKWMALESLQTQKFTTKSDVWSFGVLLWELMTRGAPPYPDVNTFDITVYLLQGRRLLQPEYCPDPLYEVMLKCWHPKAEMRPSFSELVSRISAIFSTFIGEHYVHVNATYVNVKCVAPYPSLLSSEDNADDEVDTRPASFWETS
Procedure: as §1
as §2, with “Met” for “PhKγ2”, “56],” for “52],”
as §3, §4

CK2 = biological target: T4, CK2 (Homo sapiens, UniProt P68400); test: Millipore radiometric kinase activity assay, CK2 (h)
T4 construct: purchased Millipore (assay service)
T4 sequence (P68400 whole entry): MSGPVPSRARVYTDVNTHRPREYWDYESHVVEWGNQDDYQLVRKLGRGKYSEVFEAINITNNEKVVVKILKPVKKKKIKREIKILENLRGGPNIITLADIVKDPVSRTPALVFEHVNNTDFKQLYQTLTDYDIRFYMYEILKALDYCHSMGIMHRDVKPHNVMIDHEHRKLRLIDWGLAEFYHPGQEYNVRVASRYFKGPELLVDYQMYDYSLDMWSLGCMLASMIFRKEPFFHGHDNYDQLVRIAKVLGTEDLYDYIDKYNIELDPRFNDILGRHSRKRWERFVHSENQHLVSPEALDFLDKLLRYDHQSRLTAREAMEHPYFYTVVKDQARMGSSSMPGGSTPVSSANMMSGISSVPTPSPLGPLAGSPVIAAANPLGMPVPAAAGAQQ
T4 sequence (P67870 whole entry partner): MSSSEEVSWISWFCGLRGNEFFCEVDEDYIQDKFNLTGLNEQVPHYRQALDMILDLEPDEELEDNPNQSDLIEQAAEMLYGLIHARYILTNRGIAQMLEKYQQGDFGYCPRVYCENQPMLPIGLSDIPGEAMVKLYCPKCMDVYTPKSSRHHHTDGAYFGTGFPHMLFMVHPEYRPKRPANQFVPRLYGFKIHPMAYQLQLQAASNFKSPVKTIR
Procedure: as §1
as §2, with “CK2” for “PhKγ2”, “20” for “8”, “HEPES” for “MOPS”, “7.6, 0.15 M NaCl, 0.1” for “7.0, 0.2”, “5 mM DTT, 0.1% Triton X-100, 165” for “250”, “55],” for “52],”
as §3, §4

T1 sequence (Q06187 whole entry): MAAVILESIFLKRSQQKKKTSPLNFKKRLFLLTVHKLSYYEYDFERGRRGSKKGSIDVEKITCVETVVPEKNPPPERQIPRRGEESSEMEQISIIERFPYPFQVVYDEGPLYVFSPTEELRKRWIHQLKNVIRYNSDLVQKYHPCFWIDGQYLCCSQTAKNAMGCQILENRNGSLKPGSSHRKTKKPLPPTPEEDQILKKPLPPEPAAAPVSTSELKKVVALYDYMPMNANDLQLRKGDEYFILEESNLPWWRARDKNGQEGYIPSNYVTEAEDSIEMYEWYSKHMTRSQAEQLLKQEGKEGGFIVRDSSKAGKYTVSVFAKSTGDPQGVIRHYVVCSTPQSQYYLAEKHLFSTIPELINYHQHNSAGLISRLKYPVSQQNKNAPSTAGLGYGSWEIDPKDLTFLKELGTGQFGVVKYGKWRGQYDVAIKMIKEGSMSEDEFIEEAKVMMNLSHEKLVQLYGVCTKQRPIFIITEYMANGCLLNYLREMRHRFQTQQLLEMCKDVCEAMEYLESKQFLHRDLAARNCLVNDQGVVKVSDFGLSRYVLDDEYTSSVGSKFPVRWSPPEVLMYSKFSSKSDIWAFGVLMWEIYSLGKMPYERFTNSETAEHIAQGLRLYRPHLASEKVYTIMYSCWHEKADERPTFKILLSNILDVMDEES

Row | Sequence | BTK Kinase Activity (%) (+SD %) (BTK; peptide 100 μM) | PhKγ2 Kinase Activity (%) (+SD %) (PhKγ2; peptide 100 μM) | Met Kinase Activity (%) (+SD %) (Met; peptide 100 μM) | CK2 Kinase Activity (%) (+SD %) (CK2; peptide 100 μM) | BTK Kinase Activity (%) (+SD %) (BTK; peptide 30 μM) | PhKγ2 Kinase Activity (%) (+SD %) (PhKγ2; peptide 30 μM) | Met Kinase Activity (%) (+SD %) (Met; peptide 30 μM) | CK2 Kinase Activity (%) (+SD %) (CK2; peptide 30 μM)
1 | KAFAKLAARLYRKALARQLGVAA | 16 (3) % | 27 (3) % | 22 (3) % | 79 (12) % | – | – | – | –
2 | WLRRIKAWLRRIKALNRQLGVAA | 19 (1) % | 20 (0) % | 17 (3) % | 80 (14) % | 5 (0) % | 15 (0) % | 30 (1) % | 114 (4) %
